± gives the uncertainty stated by the source.
B1: Cyclin-F, residues 28 to 80; numbered along this chain, P41002 (parent)
chain: RNLTILSLPEDVLFHILKWLSVEDILAVRAVHSQLKDLVDNHASVWACASFQE

Variants of: B1
Assay: abundance fitness (aPCA) (normalised: wild type 0, dead -1); higher = more abundant; growth selection in yeast, the domain comes from the species named
Details: Homo sapiens

| Variant | abundance fitness |
| --- | --- |
| RNLTILSLPEDVLFHILKWLSVEDILAVRAVHSQLKDLVDNHASVWACQSFQE | 0.088 ± 0.15 |
| RNLTILSLPEDVLFHILKWLSVEDILAVRAVHSQLKDLVDNHASVWACLSFQE | -0.395 ± 0.1 |
| RNLTILSLPEDVLFHILKWLSVEDILAVRAVHSQLKDLVDNHASVWACDSFQE | 0.248 ± 0.12 |
| RNLTILSLPEDVLFHILKWLSVEDILAVRAVHSQLKDLVDNHASVWACYSFQE | -0.341 ± 0.25 |
| RNLTILSLPEDVLFHILKWLSVEDILAVRAVHSQLKDLVDNHASVWACVSFQE | -0.609 ± 0.11 |
| RNLTILSLPEDVLFHILKWLSVEDILAVRAVHSQLKDLVDNHASVWACPSFQE | 0.126 ± 0.13 |
| RNLTILSLPEDVLFHILKWLSVEDILAVRAVHSQLKDLVDNHASVWACESFQE | -0.125 ± 0.14 |
| RNLTILSLPEDVLFHILKWLSVEDILAVRAVHSQLKDLVDNHASVWACKSFQE | 0.17 ± 0.13 |
| RNLTILSLPEDVLFHILKWLSVEDILAVRAVHSQLKDLVDNHASVWACRSFQE | 0.037 ± 0.08 |
| RNLTILSLPEDVLFHILKWLSVEDILAVRAVHSQLKDLVDNHASVWACISFQE | -0.409 ± 0.23 |
| RNLTILSLPEDVLFHILKWLSVEDILAVRAVHSQLKDLVDNHASVWACHSFQE | -0.091 ± 0.16 |
| RNLTILSLPEDVLFHILKWLSVEDILAVRAVHSQLKDLVDNHASVWACFSFQE | -0.663 ± 0.24 |
| RNLTILSLPEDVLFHILKWLSVEDILAVRAVHSQLKDLVDNHASVWACGSFQE | 0.089 ± 0.073 |
| RNLTILSLPEDVLFHILKWLSVEDILAVRAVHSQLKDLVDNHASVWACCSFQE | -0.185 ± 0.12 |
| RNLTILSLPEDVLFHILKWLSVEDILAVRAVHSQLKDLVDNHASVWACWSFQE | -0.443 ± 0.12 |
| RNLTILSLPEDVLFHILKWLSVEDILAVRAVHSQLKDLVDNHASVWACSSFQE | 0.092 ± 0.078 |
| RNLTILSLPEDVLFHILKWLSVEDILAVRAVHSQLKDLVDNHASVWACMSFQE | -0.51 ± 0.18 |
| RNLTILSLPEDVLFHILKWLSVEDILAVRAVHSQLKDLVDNHASVWACAFFQE | -0.668 ± 0.11 |
| RNLTILSLPEDVLFHILKWLSVEDILAVRAVHSQLKDLVDNHASVWACAMFQE | -0.483 ± 0.17 |
| RNLTILSLPEDVLFHILKWLSVEDILAVRAVHSQLKDLVDNHASVWACAHFQE | -0.319 ± 0.16 |
| RNLTILSLPEDVLFHILKWLSVEDILAVRAVHSQLKDLVDNHASVWACAPFQE | -0.1 ± 0.12 |
| RNLTILSLPEDVLFHILKWLSVEDILAVRAVHSQLKDLVDNHASVWACATFQE | -0.166 ± 0.13 |
| RNLTILSLPEDVLFHILKWLSVEDILAVRAVHSQLKDLVDNHASVWACAVFQE | -0.621 ± 0.14 |
| RNLTILSLPEDVLFHILKWLSVEDILAVRAVHSQLKDLVDNHASVWACAWFQE | -0.434 ± 0.098 |
| RNLTILSLPEDVLFHILKWLSVEDILAVRAVHSQLKDLVDNHASVWACAQFQE | 0.105 ± 0.12 |

| Variant | abundance fitness |
| --- | --- |
| RNLTILSLPEDVLFHILKWLSVEDILAVRAVHSQLKDLVDNHASVWACALFQE | -0.485 ± 0.099 |
| RNLTILSLPEDVLFHILKWLSVEDILAVRAVHSQLKDLVDNHASVWACAYFQE | -0.369 ± 0.2 |
| RNLTILSLPEDVLFHILKWLSVEDILAVRAVHSQLKDLVDNHASVWACAKFQE | -0.03 ± 0.13 |
| RNLTILSLPEDVLFHILKWLSVEDILAVRAVHSQLKDLVDNHASVWACAEFQE | -0.114 ± 0.16 |
| RNLTILSLPEDVLFHILKWLSVEDILAVRAVHSQLKDLVDNHASVWACADFQE | 0.029 ± 0.14 |
| RNLTILSLPEDVLFHILKWLSVEDILAVRAVHSQLKDLVDNHASVWACANFQE | -0.394 ± 0.27 |
| RNLTILSLPEDVLFHILKWLSVEDILAVRAVHSQLKDLVDNHASVWAQASFQE | -0.246 ± 0.17 |
| RNLTILSLPEDVLFHILKWLSVEDILAVRAVHSQLKDLVDNHASVWAKASFQE | -0.307 ± 0.16 |
| RNLTILSLPEDVLFHILKWLSVEDILAVRAVHSQLKDLVDNHASVWAIASFQE | -0.306 ± 0.18 |
| RNLTILSLPEDVLFHILKWLSVEDILAVRAVHSQLKDLVDNHASVWAFASFQE | -0.364 ± 0.13 |
| RNLTILSLPEDVLFHILKWLSVEDILAVRAVHSQLKDLVDNHASVWAMASFQE | -0.238 ± 0.13 |
| RNLTILSLPEDVLFHILKWLSVEDILAVRAVHSQLKDLVDNHASVWADASFQE | -0.14 ± 0.2 |
| RNLTILSLPEDVLFHILKWLSVEDILAVRAVHSQLKDLVDNHASVWARASFQE | -0.321 ± 0.1 |
| RNLTILSLPEDVLFHILKWLSVEDILAVRAVHSQLKDLVDNHASVWAWASFQE | -0.312 ± 0.11 |
| RNLTILSLPEDVLFHILKWLSVEDILAVRAVHSQLKDLVDNHASVWATASFQE | -0.066 ± 0.12 |
| RNLTILSLPEDVLFHILKWLSVEDILAVRAVHSQLKDLVDNHASVWAHASFQE | -0.302 ± 0.15 |
| RNLTILSLPEDVLFHILKWLSVEDILAVRAVHSQLKDLVDNHASVWAGASFQE | 0.179 ± 0.088 |
| RNLTILSLPEDVLFHILKWLSVEDILAVRAVHSQLKDLVDNHASVWALASFQE | 0.075 ± 0.085 |
| RNLTILSLPEDVLFHILKWLSVEDILAVRAVHSQLKDLVDNHASVWAYASFQE | -0.367 ± 0.12 |
| RNLTILSLPEDVLFHILKWLSVEDILAVRAVHSQLKDLVDNHASVWAVASFQE | -0.406 ± 0.093 |
| RNLTILSLPEDVLFHILKWLSVEDILAVRAVHSQLKDLVDNHASVWASASFQE | 0.14 ± 0.095 |
| RNLTILSLPEDVLFHILKWLSVEDILAVRAVHSQLKDLVDNHASVWAPASFQE | 0.42 ± 0.12 |
| RNLTILSLPEDVLFHILKWLSVEDILAVRAVHSQLKDLVDNHASVWANASFQE | 0.184 ± 0.17 |
| RNLTILSLPEDVLFHILKWLSVEDILAVRAVHSQLKDLVDNHASVWAAASFQE | -0.232 ± 0.11 |
